# In a protein production outcome set (Wang et al. 2014):
# Experiment: label from the status in PepcDB records
row,Sequence,protein production
1,MASYFDEHDCEPSDPEQETRTNMLLELARSLFNRMDFEDLGLVVDWDHHLPPPAAKTVVENLPRTVIRGSQAELKCPVCLLEFEEEETAIEMPCHHLFHSSCILPWLSKTNSCPLCRYELPTDDDTYEEHRRDKARKQQQQHRLENLHGAMYT,failed
2,MASYSEDQCSWRGSGLSQAVKNVEQVWLRCAEGSVEWLYPAGALRLTLSPRLPWSAMGPGESSRSPVSVCVKPDPHWGGAQLYLERDGVLELLVGDETSTTPGPAHVRCFSALPGERPALFLQATPHRDISRRIAAFRYELRGDWTAQPAVNTDPVSSEGACRPCNNTEILMAVCTSDFVVRGNIRSVGTDSNLNAAVIKVSATRVYRQKFALFPESGRLTRSGEIRTPLQCGVRPGAGSFLFTGRVHFGEAWLGCAPRYKDFLKAYEQAKQSLMIPCTLVND,failed
3,MASYSLVESNSFGSENWCLKLQPSYKHGLLTGLSNGEIRLLDWSTGKSVQKIKASETAINDMKVIGSDFSAGHLVSSASIDAVKVFDIRTNDRIAQIQNEANSPFISLDSRHGLLACGTELQGIDAAVYIYDIRKWDTPLRSLIDSHHDDVTCIKFHPSDVNILLSGSTDGYTNIYDLKQDEEEDALHQVINYASIHSCGWLSPKRIFTLSHMETFAIHELNDKSDELKEPQPLDFGDVREIWNCDYVVDIYPGLIATGKTQENCGELCLLPFKDEKVDTENGIVIPHAHGDEVVRDIFIPAQHSNMLYSCGEDGCVKIWENKQGPLDIPENFWDYSKKMNVLGDDDREGSINLDEPLIIQKESVSTRPRKEKHKKAKKHSMKSRFKPY,failed
4,MATETLTKSDAITQSLRAAVDRNFNDQVAFLQRMVQFRSVRGEEAPQQEWLAQQFADRGYKVDTFSLADVDIASHPKAAPMDTIDPAGSMQVVATADSDGKGRSLILQGHIDVVPEGPVDLWSDPPYEAKVRDGWMIGRGAQDMKGGVSAMIFALDAIRTAGYAPDARVHVQTVTEEESTGNGALSTLMRGYRADACLIPEPTGHTLTRAQVGAVWFRLRVRGTPVHVAYSETGTSAILSAMHLIRAFEEYTKELNAQAVRDPWFGQVKNPIKFNVGIIKGGDWASSTAAWCELDCRLGLLTGDTPQEAMRGIEKCLADAQATDSFLSENPAELVWSGFQADPAVCEPGGVAEDVLTAAHKAAFNAPLDARLSTAVNDTRYYSVDYGIPALCYGPYGQGPHAFDERIDLESLRKTTLSIALFVAEWCGLRKL,not failed
5,MATETQIRIGVMGCADIARKVSRAIHLAPNATISGVASRSLEKAKAFATANNYPESTKIHGSYESLLEDPEIDALYVPLPTSLHVEWAIKAAEKGKHILLEKPVAMNVTEFDKIVDACEANGVQIMDGTMWVHNPRTALLKEFLSDSERFGQLKTVQSCFSFAGDEDFLKNDIRVKPGLDGLGALGDAGWYAIRATLLANNFELPKTVTAFPGAVLNEAGVILSCGASLSWEDGRTATIYCSFLANLTMEITAIGTKGTLRVHDFIIPYKETEASFTTSTKAWFNDLVTAWVSPPSEHTVKTELPQEACMVREFARLVGEIKNNGAKPDGYWPSISRKTQLVVDAVKESVDKNYQQISLSGR,not failed
6,MATIGLDRLYYSKITEDANGEETYAQPSVLAKAITAELSVELVEAILYADDGAAEVVKDFNSGTLTLGVDDIGPMVAADLTGASTDDNGVLISASENVGTPVAVGFRAQRANGTYRYFWLYRVKFGLPATNLQTKADSITFSTPTIEGTVMRRNKLDGLGKHPWKAEVTEGDPGVSSTTITGWFTEVYEPVYTPEP,failed
7,MATIGSLLLWAITIYSYMIIGYILMSWFPNARESSFGQFLGSIVEPYLAPFRKIIPPLGMIDISPIVAIFALTFARYGVHAIFF,failed
8,MATIHVDGKTLEVDGADNLLQACLSLGLDIPYFCWHPALGSVGACRQCAVKQYTDENDKRGRLVMSCMTPATDNTWISIEDEEAKQFRASVVEWLMTNHPHDCPVCEEGGHCHLQDMTVMTGHNERRYRFTKRTHQNQELGPFIAHEMNRCIACYRCVRYYKDYAGGTDLGVYGAHDNVYFGRVEDGVLESEFSGNLTEVCPTGVFTDKTHSERYNRKWDMQFAPSICHGCSSGCNISPGERYGEIRRIENRYNGSVNHYFLCDRGRFGYGYVNREDRPRQPLLVLSKQKLSLDGALDQAAALLKERKVVGIGSPRASLESNFALRELVGEGNFYSGINEGELDRLRLILQVMQEGPLPVPSIRDIEDHDAVFVLGEDLTQTAARIALALRQSVKGKAVEMAADMKVQPWLDAAVKNIAQHAQNPLFIASVSATRLDDVAEETVHAAPDDLARLGFAVAHAIDPSAPSVADLDPQAQAFAQRITDALLAAKRPLVVSGNSLGNKALIEAAANIAKALKQREKNGSISLVVGEANSLGLALFGGDSVEAALERLTSGQADAVVVLENDLYRRTDAARVDAALAAAKVVIVADHQQTATTAKAHLVLPAASFAEGDGTLVSQEGRAQRFFQVFDPTYYDARNMVREGWRWLHAIHSTLQGKRVDWTQLDHVTEAVAEAKPILAGIRDAAPAASFRIKGLKLAREPHRYSGRTAMRANISVHEPRTPQDIDSAFAFSMEGYSGSQEDRQQIPFAWSPGWNSPQAWNKFQDEVGGHLRAGDPGVRLIEPKGEGLDWFQAVPVPFSAKADSWKVVPLYHLFGSEENSSRAAPIQQRIPETYVALSKEDADRLGVNDGATLGFQLKGQALRLPLRIDEQLGAGLIGLPVGFAGIPAAIAGCSVEGLQ,failed
9,MATIIFAGRSNVGKSTLIYRLTGKKVRRGKRPGVTRKIIEIEWKNHKIIDMPGFGFMMGLPKEVQERIKDEIVHFIEDNAKNIDVAVLVVDGKAAPEIIKRWEKRGEIPIDVEFYQFLRELDIPTIVAVNKLDKIKNVQEVINFLAEKFEVPLSEIDKVFIPISAKFGDNIERLKNRIFEVIRERQGRRV,not failed
10,MATITVVKARQIFDSRGNPTVEVDIHTSNGIKVTAAVPSGASTGIYEALELRDGGSDYLGKGVSKAVGNVNNIIGPALIGKDPTQQTAIDNFMVHELDGTQNEWGWCKQKLGANAILAVSLAVCKAGAVVSGIPLYKHIANLAGNPKIVLPVPAFNVINGGSHAGNKLAMQEFMILPVGAASFKEAMKMGVEVYHHLKSVIKKKYGQDATNVGDEGGFAPNIQENKEGLELLKTAIEKAGYTGKVVIGMDVAASEFYSEDKTYDLNFKEENNNGSQKISGDALKDLYKSFVAEYPIVSIEDPFDQDDWEHYAKMTTECGTEVQIVGDDLLVTNPKRVAKAIAEKSCNALLLKVNQIGSVTESIEAVKMSKKAGWGVMTSHRSGETEDTFIADLAVGLSTGQIKTGAPCRSERLAKYNQLLRIEEELGSEAIYAGVNFRKPVEPY,failed
11,MATKARVMYDFAAEPGNNELTVTEGEIITVTNPNVGGGWLEGKNNKGEQGLVPTDYVEILPNDGKDPFSC,not failed
12,MATKIDKEACRAAYNLVRDDGSAVIWVTFRYDGATIVPGDQGADYQHFIQQCTDDVRLFAFVRFTTGDAMSKRSKFALITWIGEDVSGLQRAKTGTDKTLVKEVVQNFAKEFVISDRKELEEDFIRSELKKAGGANYDAQSE,not failed
13,MATLEITDIALVQPSHQPLSNDQTLSLSHLDNDNNLHVSFRYLRVYSSSSSTVAGESPSAVVSASLATALVHYYPLAGSLRRSASDNRFELLCSAGQSVPLVNATVNCTLESVGYLDGPDPGFVERLVPDPTREEGMVNPCILQVTMFQCGGWVLGASIHHAICDGLGASLFFNAMAELARGATKISIEPVWDRERLLGPREKPWVGAPVRDFLSLDKDFDPYGQAIGDVKRDCFFVTDDSLDQLKAQLLEKSGLNFTTFEALGAYIWRAKVRAAKTEEKENVKFVYSINIRRLMNPPLPKGYWGNGCVPMYAQIKAGELIEQPIWKTAELIKQSKSNTSDEYVRSFIDFQELHHKDGINAGTGVTGFTDWRYLGHSTIDFGWGGPVTVLPLSNKLLGSMEPCFFLPYSTDAAAGSKKDSGFKVLVNLRESAMPEFKEAMDKFHKGEFALS,failed
14,MATLTRLFIHPVKSMRGIGLTHALADVSGLAFDRIFMITEPDGTFITARQFPQMVRFTPSPVHDGLHLTAPDGSSAYVRFADFATQDAPTEVWGTHFTARIAPDAINKWLSGFFSREVQLRWVGPQMTRRVKRHNTVPLSFADGYPYLLANEASLRDLQQRCPASVKMEQFRPNLVVSGASAWEEDSWKVIRIGDVVFDVVKPCSRCIFTTVSPEKGQKHPAGEPLKTLQSFRTAQDNGDVDFGQNLIARNSGVIRVGDEVEILATAPAKIYGAAAADDTANITQQPDANVDIDWQGQAFRGNNQQVLLEQLENQGIRIPYSCRAGICGSCRVQLLEGEVTPLKKSAMGDDGTILCCSCVPKTALKLTRLEHHHHHH,failed
15,MATLYDAPVDELIDELAADLETRLDEPDWANYAKTGAGRELPPEQSDFWATRAASLLRKVAIDGPIGVKRLSEAYGSTTSGSNRYVVAPSTTTAGSRNIVRTILQQLEAEGLVEQQHDHGRVVTGDGRSLLDETAGDVIESLDRPELERYA,failed
16,MATPPFDPSLSPLKTVAVIGLGTMGTGIAEVLARAGREVVGIDISEAAAGHAVTALEASTARAVQRERLTEQERGDILARFRTFTDLQAAADADLVIEVTPESYEIKQQVLRALDGIVRADTILATGTNALSVTRLAADSAHPERVLGLHFFNPAPAMKLVEVVSSVLTAPTAVAAVTNLALDLGKEPVAVGDRPGFVADGLLFGYLNQAAAMYEAKYASREDIDAAMKLGCGLPMGPLALLDLIGVDTARTVLEAMYAESRDRLHAPAPILKQLSEAGLTGRKSGRGFYSYDEPGSATVVRDALTPLSGGPGEQGRTVRSVGVAGSGTMASGIAEVFAKAGYEVVLAARSEEKAQTAKARIGKSLSRSVDKGRLTAEAAAETLDRITPAGSYDAFADVDLALEAVAEDLEIKQQLFATFDKVCKPGAILATTTSSLPVVACARATSRPQDVIGMHFFNPAPAMKLVEVVRTVLTGDDVHATVREVCAKIRKHPVDCGDRAGFIVNALLFPYLNNAIKMVQEHYATLDDIDAAMKLGGGYPMGPFELLDVVGLDVSLAIEKVLHREFRDPGLAPAPLLEHLVAAGCLGRKTGRGFREYAKR,failed
17,MATRRTFLRGAISLTLIGSTGQLRALAHPRANTWALPIDTQAQADLTRYVDVFIGSSGHGHTFPGATLPFGMVQLSPDTDNAVWDACSGYHASNGSIMGFSHTHLSGTGIGDMLDILLMPGTGDVKLAPGPLNAPETGYRQRYDHAEEVASPGYYQVRLKDTDIVAELTATARTGLHRYHFPQHQAGHLLLDLSHAMQDNPSTPPRLRDVELSIVDTRTLLGGRRVYQWAKGRYLFFAMRLSRPFARAQLYSNDAPLTADTRQVQGVCLKAALHFPDAGEAPLLVKVGLSAVSAANALANLDAELPDFDFARVHAEAVAAWENALGRARIATDNPAQRRIFYTSLYHSLLAPTLFSDVDGRYRGMDLQVHTLPTGYHNYSTYSLWDTYRALHPLLTLVQSDRVPDLLQCLVRGAAECPDGVGIWPLQGVETGCMIGYHSAVALAEGYTKGFTGIDYAAAWPHYRKRAMQDHAHGLRYYRRLGYIPSDKVDESVSRTLEYAYDDWACAHLATAAGAHSEARVLRARSRHYRHVFNRDSGFMQPRLENGAWATPFDPRALGHLKQWHDFTECNAWQATFLNQHDVYGYMALFGGADHFAAKLDALFSALSELPPGAPPDIDGMVGQYAHGNEPSHHIAYLYVYAGQAYKTQAMVRRLLREQYHDGRDGLSGNEDCGQMSAWFVLSALGMYAVDPVSGIYVIGSPLFPYAELDVGRGRKLRILARHTSASNVYVQALRWNGSPMTRAWLRHTELAGGGTLEFEMGAQPNLDFGTHPQDLPPSFMALQPVPKHA,failed
18,MATSMTDIKGFNMISIEQEKELGNKFAVEIEKQQQPVNDPEVQRYVDKVGKRLLSGARAVEFDYVFKVVKDDSVNAFAIPGGRVYVHTGLLKAADNETELAGVLAHEINHAVARHGTRQMTQEYGYSLVLSLVLGDNPNMLAQLAGQLFGKAGMMSYSREYENQADFLGVETMYKAGYNPNGLTSFFQKLNAMDGGTQSNVARFFSTHPLTSERIQRVQAEIAKLPPQRYLTDETEFKKIKGRLKLEHHHHHH,not failed
19,MATTKRVLYVGGLAEEVDDKVLHAAFIPFGDITDIQIPLDYETEKHRGFAFVEFELAEDAAAAIDNMNESELFGRTIRVNLAKPMRIKE,not failed
